Experimental data from FireProtDB (doi:10.1110/ps.03220403).

B1: wild type, O00095 (protein)
chain: MKFLQVLPALIPAALAQTSCDQWATFTGNGYTVSNNLWGASAGSGFGCVTAVSLSGGASWHADWQWSGGQNNVKSYQNSQIAIPQKRTVNSISSMPTTASWSYSGSNIRANVAYDLFTAANPNHVTYSGDYELMIWLGKYGDIGPIGSSQGTVNVGGQSWTLYYGYNGAMQVYSFVAQTNTTNYSGDVKNFFNYLRDNKGYNAAGQYVLSYQFGTEPFTGSGTLNVASWTASIN
B2: wild type, Q8NJY3 (protein)
chain: MLKSALLLGAAAVSVQSASIPTIPANLEPRQIRSLCELYGYWSGNGYELLNNLWGKDTATSGWQCTYLDGTNNGGIQWSTAWEWQGAPDNVKSYPYVGKQIQRGRKISDINSMRTSVSWTYDRTDIRANVAYDVFTARDPDHPNWGGDYELMIWLARYGGIYPIGTFHSQVNLAGRTWDLWTGYNGNMRVYSFLPPSGDIRDFSCDIKDFFNYLERNHGYPAREQNLIVYQVGTECFTGGPARFTCRDFRADLW

Details: pH 8, Thermal, CD, Bis-Tris propane ammonium acetate 0.05 M 0.05 M, reversible: No, whole UniProt chain shown

| Protein | Tm (Hypocrea jecorina) | Tm (Trichocladium griseum) |
| --- | --- | --- |
| B1 | 54.4 °C |  |
| B2 |  | 68.7 °C |
